Laboratory results taken from patent publication US20240327502A1 (Merck Sharp & Dohme, published 2024).

Legend:
hMPV PostF trimer = target: T1, hMPV PostF trimer (human metapneumovirus, strain B2); experiment: BLI, mAb on anti-human Fc sensor
T1 construct: also called MPV PostF (dPFv1)

[1] = target: T2, Processed stabilized hMPV PreF trimer (115BV) (human metapneumovirus, strain B2); experiment: BLI, mAb on anti-human Fc sensor
T2 construct: also called Processed hMPV PreF trimer; processed PreF

[2] = target: T3, Unprocessed hMPV PreF trimer (human metapneumovirus, strain B2); experiment: BLI, mAb on anti-human Fc sensor
T3 construct: also called Unprocessed hMPV WT PreF trimer; unprocessed hMPV PreF trimeric antigen

[3] = target: T2, Processed stabilized hMPV PreF trimer …; experiment: BLI, ratio to unprocessed PreF trimer

| Binder | Octet binding response (hMPV PostF trimer) [nm] | Octet binding response [1] [nm] | Octet binding response [2] [nm] | processed/unprocessed PreF trimer binding ratio [3] |
| --- | --- | --- | --- | --- |
| M2B06 (antibody, V domains shown, IgG) VH: QVQLQESGPRLVKPSGTLSLTCAVSGASITSSHWWTWVRQPPGKGLEWIGRIFHSGSTNYNPSLKSRVTISLDKSRNQFSLTLTSVTAADTAVYYCARDDQIVVMPAGFDRWGQGALVIVSS VL: DIQMTQSPSSLSASVGDRVTITCRASQTISSYLNWYQQTPGKAPNLLIYGASRLQGGVPSRFSGSGSGTDFTLTISSLQPEDFAIYFCQQSKSIPYTFGQGTRLEIK | 0.436 | 0.401 | 0.389 | 1.03 |
| M2C11 (antibody, V domains shown, IgG) VH: QVQLVQSGAEVRKPGASVKVSCKASGYTFTSHDINWVRQAPGQGLEWMGWMNPNSDTTGYAQKFQGRVTMARDISMSTAYMELSSLTSEDTAVYYCARGRHNYYTNGPTRDGFDIWGQGTMVTVSS VL: SYELTQPPSVSVSPGQTATITCSGDDLGNQYANWFQQRPGQSPVLVIYQDNKRPSGIPERFSGSSSGNTATLTISGTQPLDEADYYCQAWDSRTYVFGTGTKVTVL | -0.03 | 0.362 | 0.349 | 1.04 |
| M2C06 (antibody, V domains shown, IgG) VH: QVQLVQSGAEVKKPGSSVKVSCRPSGGTFSNDILSWVRQAPGQRLEWMGRIIPLVNMTNIAQKFQGRLTLVADKSTAIVHLELGSLRAEDTAIYYCVRDLPSAGFPAPFDIWGQGTRVTVSA VL: EIVLTQSPGSLSLSPGARATVSCRASQSLNSASLVWYQQRVGQAPRLLMFGASNRATGIPDRFSGSGSGTDFTLTISRLEPEDFAVYYCQQYAFSPPTFGQGTKVEIK | 0.436 | 0.472 | 0.408 | 1.16 |
| M7D5 (antibody, V domains shown, IgG) VH: QVQLVQSGAEVKKPGSSVKVSCKASGGTLSNYAISWVRQAPGQGLEWMGGIIPIFGTAMYAHNFQDRVTFTADESTNTVYMAVSRLTSDDTAVYYCAQDRTVTKYAHGLDVWGQGTTVTVSS VL: DIQMTQSPSSLSASVGDRITITCPASQSLLTYLNWYQQKPGKAPKLLIYSASELPSGVPSRFSGSGSGTEFTLTVTGLQPDDFATYYCQQSHTTPLTFGGGTKVEIKR | 0.0826 | 0.347 | 0.296 | 1.17 |
| M3A01 (antibody, V domains shown, IgG) VH: EVQLVESGGGLVKPGGSLRLSCSVSAFSISGYNMHWVRQAPGKGLEWVSSITGGSNYINYADSVKGRFTISRDNAQNSLYLQMKSLRAEDTAVYYCARETQPSPGSFDSWGQGTLVTVSS VL: QSVLTQPPSVSGAPGQRVTISCTGSSSNIGAGYDVNWYQQLPGTAPKLLIYGNYNRPSGVPDRFSASKSGTSASLAITGLQAEDEADYWCQSYDTSLSGWIFGGGTKLTVL | -0.062 | 0.261 | 0.251 | 1.04 |
| M3E04 (antibody, V domains shown, IgG) VH: EVQLVESGGGLVKPGGSLRLSCAGSGFTFSSYSMNWVRQAPGKGLEWVSSISASSSYIYYADSLKGRFTISRDNAKNSLYLQMNSLRAEDTAVYYCARANYGSGNYYNPKWFDPWGQGTLVTVSS VL: QSVLTQPPSVSGAPGQRVTISCTGSSSNIGAGYDVHWYQQFPGTAPKVLIYGNNNRPSGVPDRFSGSKSGTSASLAISGLQAEDEADYYCQSYDSSLSGSIFGGGTKLTVL | 0.0262 | 0.0401 | 0.3 | 0.13 |
| M4B03 (antibody, V domains shown, IgG) VH: QVQLVQSGAEVKKPGASVKVSCKASGYIFSNYRMHWVRQAPGQRLEWMGWITAGSGNTRYSEQFQGRVAFTSDTDATTVSMELSGLRFEDTAVYFCAREYNWNDAFPYWGQGTLVIVSS VL: SYVLTQPPSVSVAPGQTARIPCGGNNIGSKSVHWYQQKSGRAPVLVVYDDSDRPPGIPDRFSGSNSGNTATLTINKIEAGDEADYYCHVSDDNSDHVFFGGGTQLTVL | -0.061 | 0.108 | 0.324 | 0.33 |
| M3A08 (antibody, V domains shown, IgG) VH: EVQLVESGGGLVKPGGSLRLSCAASGFSITSYGMHWVRQAPGKGLEWVSSISSSSSYISYRDSVKGRFTVSRDNAGNSLSLQMNSLRGEDTAVYHCARDAGLVPPWMDSWGQGTLVIVSS VL: QSVLTQPPSVSGAAGQRVTISCTGSSSNLGTGYDVHWYRQQPGTAPKLIMFGNTNRPSGVPGRFSGSRSGTSASLAITGLQADDEADYYCQSYDSSLGGLVFGGGTKLTVL | -0.0217 | 0.249 | 0.422 | 0.59 |
| M3C04 (antibody, V domains shown, IgG) VH: EVQLVQSGAEVKKPGESLKISCKGSGYNFANYWIGWVRQMPGKGLEWMGIIYPGDSDTRRNPSFQGHVTMSVDQSISTAYLQWSSLKASDTAMYYCARPLAVSAFDIWGQGTMVTVSS VL: DIQMTQSPSSLSASVGDKLTITCRASQSISNYLNWYQQKSGKAPKLLIYAASSLQSGVPSRFSGSGSGTDFTLTISSLQPEDFATYYCQQSASTPHTFGQGTKVEIV | 0.409 | 0.31 | 0.379 | 0.82 |
| M3C06 (antibody, V domains shown, IgG) VH: QVQLVQSGAEVKKPGSSVKVSCKAYGGTLSNYAISWVRQAPGQGLHWMGRIIPVMNVANYADNFQGRVTITADKSTSTAYMELSSLRSEDAAIYYCATARGLGSLEGGDAFDVWGQGTMLTVSS VL: DIVMTQSPDSVAVSLGERATISCKSSLSLLYSSNNKNYLVWYQQKPGQPPKLLFYWASTRESGVPDRFSASGSGTDFTLTISSLQAEDVAVYYCQQYYSTPITFGQGTRLEIR | -0.0338 | 0.195 | 0.208 | 0.93 |
| M3E10 (antibody, V domains shown, IgG) VH: QVQLVQSGAEVKKPGSSVKVSCKASGGTINSYAISWVRQAPGQGPEWLGGIIPIFGTANYAQNFPGRVTITADASTSTVYMELSSLRSDDTAIYYCARGTRYIAVMVPSMQDYYFFGMDVWGQGTTVTVSS VL: DIQLTQSPSFLSASVGDRVTITCRASQGISSYLAWYQQKPGQAPKLLIYAASTLQSGVPSRFSGSGSGTEFTLTISSLQPEDFATYYCQQVTSYPFSITFGQGTRLEIK | 0.0082 | 0.17 | 0.351 | 0.48 |
| M2D08 (antibody, V domains shown, IgG) VH: QVQLVESGGGVVQPGRSLRLSCAASGFVFRFSGMHWIRQAPGKGLQWVAHISDDGSQKYYADSVTGRFAISRDNSRNTLFLEMTGLRGDDTAVYYCARGDYGVSYFLAHWGLGELVIVSS VL: EIVLTQSPATLSLSPGERATLSCRASQNIYNYLAWYQQKPGQAPRLVIYDASNRATGIPARFSGSGSETDFTLTISSLEPEDFAVYYCQQRSDWTFGQGTKLEIK | -0.0414 | 0.182 | 0.416 | 0.44 |
| M4A10 (antibody, V domains shown, IgG) VH: QVQLVQSGAEVKKPGASVKVSCKASGYTFNGHYLHWVRQAPGQGLEWMGWINPNSGGTDYAQRFQGRVTMTRGTSISTAYMELSRLTSDDTAVYFCARDNFGFWSASSGRHNWLDSWGQGTLVIVSS VL: NFMLTQPHSVSESPGKTVTISCTRSTGNIASNYVQWYQQRPGSSPTTVIYEDNQRPSAVPDRFSGSIDSSSNSASLTVSGLRTEDEADYYCQSYDSGHHVVFGGGTKLTVL | -0.0388 | 0.23 | 0.325 | 0.71 |
| M2C08 (antibody, V domains shown, IgG) VH: QVQLVQSGAEVKKPGASVIVSCRASGFTFSLYTMHWVRQAPGQGLEWMGWISADNSNTKYSQKYQDRVTITMDTSATTLFMEISSLRSEDTAVYYCTRGPAYYFDSSGFAFDIWGQGTLVTVSS VL: EIVLTQSPGTLSLSPGERATLSCRASQSVSRTYLGWYQQRPGLAPRLLIYGTSSRATGIPDRFSGSGSGTDFTLTISRLEPEDFATYYCQHFGSSLTFGGGTKVEIK | -0.0185 | 0.157 | 0.415 | 0.38 |
| M2B11 (antibody, V domains shown, IgG) VH: QVQLVQSGTEVKKPGASVKVSCKASGYTFTSHDINWLRQATGQGLEWLGWMNPNSATTGYAQKFQGRVTLTRDISISTAYMELSSLRSDDTAVYYCARNRHYYYADGPTRDAFDIWGQGTVVTVSS VL: SYELTQTPTVSVSPGQTASITCSGDELGHKYTSWYQQKPGQSPVLVVYQDTKRPSGIPERFSGSNSGNTATLTISGTQVMDEADYYCQAWDSGTVLLGGGTKLTVL | -0.0289 | 0.498 | 0.38 | 1.31 |
| M1C7 (antibody, V domains shown, IgG; also called MIC7) VH: QVQLVESGGGLVQPGRSLRLSCAASGFTFSSYAMHWVRQAPGKGLEWVAIITYDGSGKYYADSLEGRITISRDDPKSMLYLHMRSLTAEDTAVYYCVKSGSFSSAFWLEDWGQGTLVTVSS VL: EIVLTQSPATLSLSPGERATLSCRASQSISNFVAWYQQKPGQAPRLLIYDASNGATGTPARFSGSGSGTDFTLTISSLEPEDFAVYYCQQRSTWTFGQGTKVEIKR | 0.0541 | 0.359 | 0.312 | 1.15 |
| M2C05 (antibody, V domains shown, IgG) VH: EVQLLESGGGLVQPGGSLRLSCAGSGFTFSNYAMSWVRQAPGKGLEWVSDINDRGETTHYADSVKGRFTISRDNSKKKLFLQMNDLRAEDTAIYYCTRAYVVLSVYAPKGFDYWGQGTLVSVSS VL: DIQMTQSPSILSASEGDRVTITCRASQSVSNWLAWYQQKSGRAPKLLIYKASSLETGVPSRFSGSGSGTEFTLTINNLQPDDFATYYCQHYNGYPYTFGQGTKLEIK | – | 0.464 | 0.399 | 1.16 |
